Experiments:
HLA-A*11:01 = assay: IEDB peptide-MHC binding, purified MHC/competitive/fluorescence; ≥ and ≤ were set here for values at or beyond the usual limits of such assays; conditions: source organism: Vaccinia virus Copenhagen
HLA-B*15:01 [1] = assay: as above
HLA-A*02:01 [2] = assay: as above
HLA-A*03:01 [3] = assay: as above; conditions: source organism: Vaccinia virus Copenhagen
HLA-B*08:01 [4] = assay: as above; conditions: source organism: Zaire ebolavirus
HLA-B*08:01 [5] = assay: IEDB peptide-MHC binding, purified MHC/competitive/fluorescence; filed as Kd, often an IC50 or EC50 that approximates it; ≥ and ≤ were set here for values at or beyond the usual limits of such assays; conditions: source organism: Araucaria virus
HLA-B*15:01 [6] = assay: as above; conditions: source organism: Araucaria virus
HLA-B*46:01 = assay: as above
HLA-B*18:01 = assay: as above
HLA-A*02:01 [7] = assay: as above
HLA-B*57:01 = assay: as above
HLA-B*39:01 = assay: as above
HLA-A*26:01 = assay: as above
HLA-B*51:01 = assay: as above
HLA-B*27:03 = assay: as above
HLA-A*69:01 = assay: as above
HLA-A*02:19 = assay: IEDB peptide-MHC binding, purified MHC/direct/fluorescence; filed as Kd, often an IC50 or EC50 that approximates it; ≥ and ≤ were set here for values at or beyond the usual limits of such assays
HLA-A*02:11 = assay: as above
HLA-A*02:03 = assay: as above
HLA-A*03:01 [8] = assay: as above
HLA-A*02:12 = assay: as above
HLA-A*02:16 = assay: as above
HLA-B*15:17 = assay: IEDB peptide-MHC binding, purified MHC/competitive/fluorescence; filed as Kd, often an IC50 or EC50 that approximates it; ≥ and ≤ were set here for values at or beyond the usual limits of such assays; conditions: source organism: Zaire ebolavirus
HLA-A*24:02 = assay: IEDB peptide-MHC binding, purified MHC/competitive/fluorescence; ≥ and ≤ were set here for values at or beyond the usual limits of such assays; conditions: source organism: Zaire ebolavirus
HLA-A*68:02 = assay: IEDB peptide-MHC binding, purified MHC/direct/fluorescence; filed as Kd, often an IC50 or EC50 that approximates it; ≥ and ≤ were set here for values at or beyond the usual limits of such assays; conditions: source organism: Zaire ebolavirus
HLA-B*15:01 [9] = assay: as above; conditions: source organism: Zaire ebolavirus
HLA-B*58:01 = assay: as above; conditions: source organism: Zaire ebolavirus
HLA-A*24:03 = assay: as above; conditions: source organism: Zaire ebolavirus
[10] = source organism: Vaccinia virus Copenhagen
[11] = source organism: Zaire ebolavirus
[12] = source organism: Araucaria virus

In the case of AIITPIVFY, the IC50 (HLA-A*11:01) is reported as 0.941 µM, the IC50 (HLA-B*15:01 [1]; [10]) is reported as 6.37 µM and the IC50 (HLA-A*02:01 [2]; [10]) is reported as no less than 122 µM. For the same sequence, the IC50 (HLA-A*03:01 [3]) was no less than 153 µM.
With EGHGFRFEV the IC50 (HLA-B*08:01 [4]) was 69.3 µM and the IC50 (HLA-A*02:01 [2]; [11]) was 28.1 µM.
ELRQLAQSL gave a Kd (HLA-B*08:01 [5]) of 0.156 µM, a Kd (HLA-B*15:01 [6]) of no less than 20 µM and a Kd (HLA-B*46:01; [12]) of no less than 20 µM. The Kd (HLA-B*18:01; [12]) was no less than 20 µM, the Kd (HLA-A*02:01 [7]; [12]) was no less than 20 µM and the Kd (HLA-B*57:01; [12]) was no less than 20 µM. For the same sequence, the Kd (HLA-B*39:01; [12]) was no less than 20 µM, the Kd (HLA-A*26:01; [12]) was no less than 20 µM and the Kd (HLA-B*51:01; [12]) was no less than 20 µM. It also gave a Kd (HLA-B*27:03; [12]) of no less than 20 µM, a Kd (HLA-A*69:01; [12]) of no less than 20 µM and a Kd (HLA-A*02:19; source organism: Choclo virus) of no less than 20 µM. The Kd (HLA-A*02:11; source organism: Choclo virus) was no less than 20 µM, the Kd (HLA-A*02:03; source organism: Choclo virus) was no less than 20 µM and the Kd (HLA-A*03:01 [8]; source organism: Choclo virus) was no less than 20 µM. It also gave a Kd (HLA-A*02:12; source organism: Choclo virus) of no less than 20 µM and a Kd (HLA-A*02:16; source organism: Choclo virus) of no less than 20 µM.
GLIQYPTAW was tested, and the Kd (HLA-B*46:01; [11]) was no less than 20 µM, the Kd (HLA-B*15:17) was no less than 20 µM and the Kd (HLA-B*18:01; [11]) was no less than 20 µM. The Kd (HLA-A*02:01 [7]; [11]) was no less than 20 µM, the Kd (HLA-B*57:01; [11]) was no less than 20 µM and the Kd (HLA-B*39:01; [11]) was no less than 20 µM. For the same sequence, the Kd (HLA-A*26:01; [11]) was no less than 20 µM, the Kd (HLA-B*51:01; [11]) was no less than 20 µM and the Kd (HLA-B*27:03; [11]) was no less than 20 µM. For the same sequence, the Kd (HLA-A*69:01; [11]) was no less than 20 µM, the IC50 (HLA-B*15:01 [1]; [11]) was no less than 109 µM and the IC50 (HLA-A*02:01 [2]; [11]) was 3.1 µM. For the same sequence, the IC50 (HLA-A*24:02) was 13.2 µM, the Kd (HLA-A*68:02) was no less than 20 µM and the Kd (HLA-A*02:19; [11]) was no less than 20 µM. It also gave a Kd (HLA-A*02:11; [11]) of no less than 20 µM, a Kd (HLA-B*15:01 [9]) of 2.2 µM and a Kd (HLA-A*02:03; [11]) of no less than 20 µM. The Kd (HLA-B*58:01) was 0.5 µM, the Kd (HLA-A*03:01 [8]; [11]) was no less than 20 µM and the Kd (HLA-A*24:03) was no less than 20 µM. It also gave a Kd (HLA-A*02:12; [11]) of no less than 20 µM and a Kd (HLA-A*02:16; [11]) of no less than 20 µM.

Source: the Immune Epitope Database (IEDB)
